Laboratory results: patent publication EP3020822A1 (Janssen Biotech, Inc., dated 2016)

Legend:
[1] = target: T1, human TLR3 extracellular domain (ECD) (human, UniProt O15455 24-703); assay: ELISA, huTLR3 ECD coated, mAb titrated, anti-human IgG-peroxidase
T1 construct: amino acids 1-703 of human TLR3; the structural model covers residues 30-687; also called huTLR3 ECD; TLR3 ECD

[2] = target: T1, human TLR3 extracellular domain (ECD); assay: Biacore (data not shown)
[3] = target: T1, human TLR3 extracellular domain (ECD); assay: ELISA, human TLR3 ECD coated, goat anti-human Fc:HRP, luminescence

Row | Binder | EC50 [1] [µg/mL] | Kd [2] [nM] | binding result [3]
1 | mAb 17 (antibody, human IgG4 S228P, V domains shown, human IgG4 with S229P; also called candidate 17; Fab 17) VH: QVELQQSGPGLVKPSQTLSLTCAISGDSVSTRSAAWGWIRQSPGRGLEWLGRIYMRSKWYNDYAVSVKSRITINPDTSKNQFSLQLNSVTPEDTAVYYCARHTYPYLSFDVWGQGTLVTVSS VL: DIELTQPPSVSVAPGQTARISCSGDALGGYFVSWYQQKPGQAPVLVIYDDDNRPSGIPERFSGSNSGNTATLTISGTQAEDEADYYCASYDGDEFTVFGGGTKLTVL | 0.0138 | < 10 | 
2 | mAb 3 (antibody, human IgG4 S228P, V domains shown, human IgG4 with S229P; also called candidate 3; Fab 3) VH: QVELQQSGPGLVKPSQTLSLTCAISGDSVSTRSAAWGWIRQSPGRGLEWLGRIHRRSKWYNDYAVSVKSRITINPDTSKNQFSLQLNSVTPEDTAVYYCARHTYPYLSFDVWGQGTLVTVSS VL: DIELTQPPSVSVAPGQTARISCSGDALGGYFVSWYQQKPGQAPVLVIYDDDNRPSGIPERFSGSNSGNTATLTISGTQAEDEADYYCASYDGDEFTVFGGGTKLTVL | 0.0234 | < 10 | 
3 | mAb 1 (antibody, human IgG4 S228P, human IgG4 with S229P; also called candidate 1; Fab 1) heavy: not shown VL: DIVLTQSPATLSLSPGERATLSCRASQYIDISYLAWYQQKPGQAPRLLIYDASSRATGVPARFSGSGSGTDFTLTISSLEPEDFAVYYCQQYYSLSITFGQGTKVEIK | 0.0172 | < 10 | 
4 | mAb 2 (antibody, human IgG4 S228P, V domains shown, human IgG4 with S229P; also called candidate 2; Fab 2) VH: QVELVQSGAEVKKPGESLKISCKGSGYSFNNYWIGWVRQMPGKGLEWMGIIDPQDSWTNYAPSFQGQVTISADKSISTAYLQWSSLKASDTAMYYCARNIYEFDYWGQGTLVTVSS VL: DIQMTQSPSSLSASVGDRVTITCRASQGISSWLNWYQQKPGKAPKLLIYGASNLQSGVPSRFSGSGSGTDFTLTISSLQPEDFAVYYCQQYDDFSITFGQGTKVEIK | 0.0531 | < 10 | 
5 | mAb 13 (antibody, human IgG4 S228P, V domains shown, human IgG4 with S229P; also called candidate 13; Fab 13) VH: QVELVQSGAEVKKPGESLKISCKGSGYSFTNYWVGWVRQMPGKGLEWMGFIDPSDSYTNYAPSFQGQVTISADKSISTAYLQWSSLKASDTAMYYCARELYQGYMDTFDSWGQGTLVTVSS VL: DIQMTQSPSSLSASVGDRVTITCRASQSIGLYLAWYQQKPGKAPKLLIYAASSLQSGVPSRFSGSGSGTDFTLTISSLQPEDFATYYCQQGESILSTFGQGTKVEIK | 0.0235 | < 10 | 
6 | mAb 15-2 (antibody, human IgG4 S228P, kappa, F234A L235A, V domains shown, also called HC: V34I) VH: EVQLVQSGAEVKKPGESLKISCKGSGYSFTNYWIGWVRQMPGKGLEWMGFIDPSDSYTNYAPSFQGQVTISADKSISTAYLQWSSLKASDTAMYYCARELYQGYMDTFDSWGQGTLVTVSS VL: DIQMTQSPSSLSASVGDRVTITCRASQSIGLYLAWYQQKPGKAPKLLIYAASSLQSGVPSRFSGSGSGTDFTLTISSLQPEDFATYYCQQGNTLSYTFGQGTKVEIKR |  |  | binds
7 | mAb 15-3 (antibody, human IgG4 S228P, kappa, F234A L235A, V domains shown, also called HC: V34I/G35S) VH: EVQLVQSGAEVKKPGESLKISCKGSGYSFTNYWISWVRQMPGKGLEWMGFIDPSDSYTNYAPSFQGQVTISADKSISTAYLQWSSLKASDTAMYYCARELYQGYMDTFDSWGQGTLVTVSS VL: DIQMTQSPSSLSASVGDRVTITCRASQSIGLYLAWYQQKPGKAPKLLIYAASSLQSGVPSRFSGSGSGTDFTLTISSLQPEDFATYYCQQGNTLSYTFGQGTKVEIKR |  |  | binds
8 | mAb 15-4 (antibody, human IgG4 S228P, kappa, F234A L235A, V domains shown, also called HC: A61S/Q67H) VH: EVQLVQSGAEVKKPGESLKISCKGSGYSFTNYWVGWVRQMPGKGLEWMGFIDPSDSYTNYSPSFQGHVTISADKSISTAYLQWSSLKASDTAMYYCARELYQGYMDTFDSWGQGTLVTVSS VL: DIQMTQSPSSLSASVGDRVTITCRASQSIGLYLAWYQQKPGKAPKLLIYAASSLQSGVPSRFSGSGSGTDFTLTISSLQPEDFATYYCQQGNTLSYTFGQGTKVEIKR |  |  | binds
9 | mAb 15-1 (antibody, human IgG4 S228P, kappa, F234A L235A, V domains shown, also called HC: F50R) VH: EVQLVQSGAEVKKPGESLKISCKGSGYSFTNYWVGWVRQMPGKGLEWMGRIDPSDSYTNYAPSFQGQVTISADKSISTAYLQWSSLKASDTAMYYCARELYQGYMDTFDSWGQGTLVTVSS VL: DIQMTQSPSSLSASVGDRVTITCRASQSIGLYLAWYQQKPGKAPKLLIYAASSLQSGVPSRFSGSGSGTDFTLTISSLQPEDFATYYCQQGNTLSYTFGQGTKVEIKR |  |  | binds
10 | mAb 8 (antibody, human IgG4 S228P, V domains shown, human IgG4 with S229P; also called candidate 8; Fab 8) VH: QVELQQSGPGLVKPSQTLSLTCAISGDSVSSNSAAWGWIRQSPGRGLEWLGIIQTRSKWYNDYAVSVKSRITINPDTSKNQFSLQLNSVTPEDTAVYYCARYSYPFYSIDYWGQGTLVTVSS VL: DIELTQPPSVSVAPGQTARISCSGDNIGSYYVHWYQQKPGQAPVLVIYEDSERPSGIPERFSGSNSGNTATLTISGTQAEDEADYYCQSYDSQFSFGVFGGGTKLTVL | 0.0186 | < 10 | 
11 | mAb 10 (antibody, human IgG4 S228P, V domains shown, human IgG4 with S229P; also called candidate 10; Fab 10) VH: QVELQQSGPGLVKPSQTLSLTCAISGDSVSSNSAAWGWIRQSPGRGLEWLGIIQKRSKWYNNYAVSVKSRITINPDTSKNQFSLQLNSVTPEDTAVYYCARYSYPFYSIDYWGQGTLVTVSS VL: DIELTQPPSVSVAPGQTARISCSGDNIGSYYVHWYQQKPGQAPVLVIYEDSERPSGIPERFSGSNSGNTATLTISGTQAEDEADYYCQSYDTPVYSVFGGGTKLTVL | 0.0158 | < 10 | 

The next lines start with the values.

Row | EC50 [1] [µg/mL] | Kd [2] [nM] | binding result [3] | Binder
12 | 0.0199 | < 10 |  | mAb 5 (antibody, human IgG4 S228P, V domains shown, human IgG4 with S229P; also called candidate 5; Fab 5) VH: QVELQQSGPGLVKPSQTLSLTCAISGDSVSTRSAAWGWIRQSPGRGLEWLGRIYMRSKWYNDYAVSVKSRITINPDTSKNQFSLQLNSVTPEDTAVYYCARHTYPYLSFDVWGQGTLVTVSS VL: DIELTQPPSVSVAPGQTARISCSGDALGGYFVSWYQQKPGQAPVLVIYDDDNRPSGIPERFSGSNSGNTATLTISGTQAEDEADYYCQSYDEDSATVFGGGTKLTVL
13 | 0.0128 | < 10 |  | mAb 4 (antibody, human IgG4 S228P, V domains shown, human IgG4 with S229P; also called candidate 4; Fab 4) VH: QVELQQSGPGLVKPSQTLSLTCAISGDSVSTRSAAWGWIRQSPGRGLEWLGKISYRSRWYNDYAVSVKSRITINPDTSKNQFSLQLNSVTPEDTAVYYCARHTYPYLSFDVWGQGTLVTVSS VL: DIELTQPPSVSVAPGQTARISCSGDALGGYFVSWYQQKPGQAPVLVIYDDDNRPSGIPERFSGSNSGNTATLTISGTQAEDEADYYCASYDGDEFTVFGGGTKLTVL
14 | 0.0161 | < 10 |  | mAb 7 (antibody, human IgG4 S228P, V domains shown, human IgG4 with S229P; also called candidate 7; Fab 7) VH: QVELQQSGPGLVKPSQTLSLTCAISGDSVSTRSAAWGWIRQSPGRGLEWLGRIYMRSKWYNDYAVSVKSRITINPDTSKNQFSLQLNSVTPEDTAVYYCARHTYPYLSFDVWGQGTLVTVSS VL: DIELTQPPSVSVAPGQTARISCSGDALGGYFVSWYQQKPGQAPVLVIYDDDNRPSGIPERFSGSNSGNTATLTISGTQAEDEADYYCSSYDSDSLTVFGGGTKLTVL
15 | 0.019 | < 10 |  | mAb 6 (antibody, human IgG4 S228P, V domains shown, human IgG4 with S229P; also called candidate 6; Fab 6) VH: QVELQQSGPGLVKPSQTLSLTCAISGDSVSTRSAAWGWIRQSPGRGLEWLGRIYMRSKWYNDYAVSVKSRITINPDTSKNQFSLQLNSVTPEDTAVYYCARHTYPYLSFDVWGQGTLVTVSS VL: DIELTQPPSVSVAPGQTARISCSGDALGGYFVSWYQQKPGQAPVLVIYDDDNRPSGIPERFSGSNSGNTATLTISGTQAEDEADYYCGSYDSNSLTVFGGGTKLTVL
16 | 0.0437 | < 10 |  | mAb 16 (antibody, human IgG4 S228P, V domains shown, human IgG4 with S229P; also called candidate 16; Fab 16) VH: QVELVQSGAEVKKPGESLKISCKGSGYSFNNYWIGWVRQMPGKGLEWMGIIDPGDSYTNYAPSFQGQVTISADKSISTAYLQWSSLKASDTAMYYCARNIYEFDYWGQGTLVTVSS VL: DIQMTQSPSSLSASVGDRVTITCRASQGISSWLNWYQQKPGKAPKLLIYGASNLQSGVPSRFSGSGSGTDFTLTISSLQPEDFAVYYCQQYDDFSITFGQGTKVEIK
17 | 0.0336 | < 10 |  | mAb 14 (antibody, human IgG4 S228P, kappa, V domains shown, human IgG4 with S229P; also called candidate 14; Fab 14) VH: QVELVQSGAEVKKPGESLKISCKGSGYSFTNYWVGWVRQMPGKGLEWMGFIDPSDSYTNYAPSFQGQVTISADKSISTAYLQWSSLKASDTAMYYCARELYQGYMDTFDSWGQGTLVTVSS VL: DIQMTQSPSSLSASVGDRVTITCRASQSIGLYLAWYQQKPGKAPKLLIYAASSLQSGVPSRFSGSGSGTDFTLTISSLQPEDFATYYCQQAETVSPTFGQGTKVEIKR
18 | 0.0665 | < 10 |  | mAb 19 (antibody, human IgG4 S228P, V domains shown, human IgG4 with S229P; also called candidate 19; Fab 19) VH: QVELVQSGAEVKKPGESLKISCKGSGYSFTNYWVGWVRQMPGKGLEWMGFIDPSDSYTNYAPSFQGQVTISADKSISTAYLQWSSLKASDTAMYYCARELYQGYMDTFDSWGQGTLVTVSS VL: DIQMTQSPSSLSASVGDRVTITCRASQSIGLYLAWYQQKPGKAPKLLIYAASSLQSGVPSRFSGSGSGTDFTLTISSLQPEDFATYYCQQYGSVSITFGQGTKVEIK
19 | 0.0226 | < 10 |  | mAb 9 (antibody, human IgG4 S228P, V domains shown, human IgG4 with S229P; also called candidate 9; Fab 9) VH: QVELQQSGPGLVKPSQTLSLTCAISGDSVSSNSAAWGWIRQSPGRGLEWLGIIQIRSKWYNDYALSVKSRITINPDTSKNQFSLQLNSVTPEDTAVYYCARYSYPFYSIDYWGQGTLVTVSS VL: DIELTQPPSVSVAPGQTARISCSGDNIGSYYVHWYQQKPGQAPVLVIYEDSERPSGIPERFSGSNSGNTATLTISGTQAEDEADYYCQSYDSQFSFGVFGGGTKLTVL
20 | 0.0263 | < 10 |  | mAb 11 (antibody, human IgG4 S228P, V domains shown, human IgG4 with S229P; also called candidate 11; Fab 11) VH: QVELQQSGPGLVKPSQTLSLTCAISGDSVSSNSAAWGWIRQSPGRGLEWLGIIQKRSKWYNNYAVSVKSRITINPDTSKNQFSLQLNSVTPEDTAVYYCARYSYPFYSIDYWGQGTLVTVSS VL: DIELTQPPSVSVAPGQTARISCSGDNIGSYYVHWYQQKPGQAPVLVIYEDSERPSGIPERFSGSNSGNTATLTISGTQAEDEADYYCSSYDEPNFNVFGGGTKLTVL
21 | 0.00968 | < 10 |  | mAb 18 (antibody, human IgG4 S228P, V domains shown, human IgG4 with S229P; also called candidate 18; Fab 18) VH: QVELQQSGPGLVKPSQTLSLTCAISGDSVSSNSAAWGWIRQSPGRGLEWLGIIQKRSKWYNNYAVSVKSRITINPDTSKNQFSLQLNSVTPEDTAVYYCARYSYPFYSIDYWGQGTLVTVSS VL: DIELTQPPSVSVAPGQTARISCSGDNIGSYYVHWYQQKPGQAPVLVIYEDSERPSGIPERFSGSNSGNTATLTISGTQAEDEADYYCQSYDSQFSFGVFGGGTKLTVL
